Source: US20230192808A1 (REGENTS OF THE UNIVERSITY OF COLORADO A BODY CORPORATE, published 2023)
Values belong to the binder of their own block, whether it stands above or below them. Where no end group is shown, it is not given here. The star is where a group is joined. Biotin = O=C1N[C@H]2[C@H](CS[C@H]2CCCCC(=O)*)N1; PEGS = not defined here

Key:
HLA-DRB1*07:01 = target: T1, HLA-DRB1*07:01 (human); assay: flow cytometry, biotinylated peptide on HLA-expressing T2 cells, streptavidin-PE
T1 construct: whole, on cells; on T2 cells by the general method; the making of this line is not described on its own; also called resistant allele (NMO)

HLA-DRB1*04:01 = target: T2, HLA-DRB1*04:01 (human, UniProt P01903 26-216; P01911 30-227, limits assumed); assay: as above
T2 construct: whole, on cells; on T2 cells; also called DR4
T2 MHC II alpha: not shown
T2 MHC II beta: not shown

[1] = target: T3, HLA-DQ2 (DQA1*05:01/DQB1*02:01) (human, UniProt P01909 24-216, limits assumed); assay: flow cytometry, biotinylated peptide titrated on HLA-expressing T2 cells, streptavidin-PE
T3 construct: whole, on cells; on T2 cells

[2] = target: T4, HLA-DQ8 (DQA1*03:01/DQB1*03:02) (human, UniProt P01909 24-216; P01920 33-230, limits assumed); assay: as above
T4 construct: whole, on cells; on T2 cells
T4 MHC II alpha: not shown
T4 MHC II beta: not shown

[3] = target: T5, HLA-DQ2 trans (DQA1*03:01/DQB1*02:01) (human, UniProt P01909 24-216, limits assumed); assay: as above
T5 construct: whole, on cells; on T2 cells
T5 MHC II alpha: not shown
T5 MHC II beta: not shown

[4] = target: T6, HLA-DQ2 A57D (DQA1*05:01/DQB1*02:01 A57D) (human, UniProt P01909 24-254; P01920 33-261); assay: as above
T6 construct: A57D variant of the DQB1 chain, cloned into T2 cells
T6 alpha: not shown
T6 beta: not shown

HLA-DRB1*15:01 = target: T7, HLA-DRB1*15:01 (human, UniProt P01903 26-216; P01911 30-227, limits assumed); assay: flow cytometry, biotinylated peptide on HLA-expressing T2 cells, streptavidin-PE
T7 construct: whole, on cells; HLA class II molecule expressed on class II negative T2 cells that carry DRA1*01:01

HLA-DRB1*04:01 G86L = target: T8, HLA-DRB1*04:01 G86L (human); assay: as above
T8 construct: pocket 1 variant on T2 cells

HLA-DRB1*15:01 F47Y = target: T9, HLA-DRB1*15:01 F47Y (human); assay: as above
T9 construct: engineered allele on T2 cells

HLA-DRB1*15:01 A71R = target: T10, HLA-DRB1*15:01 A71R (human); assay: as above
T10 construct: engineered allele on T2 cells

HLA-DRB1*15:01 V86G = target: T11, HLA-DRB1*15:01 V86G (human); assay: as above
T11 construct: engineered allele on T2 cells

Binder: RSQVETDDLILKPGV (peptide, UniProt P55087 284-298, looked up, also: biotinylated, site not given here, also called aquaporin 4 peptide 5) [AQP4-5 peptide]
binding result (HLA-DRB1*07:01): no binding (tested: 100 µM (general method))

Binder: AMMIARFKMFPEVKEKG (also: biotinylated, site not given here) [GAD65^265-281 peptide]
binding result (HLA-DRB1*04:01 G86L): no binding (tested: 100 uM)

Binder: SQVETDDLILKPGVV (peptide, UniProt P55087 285-299, looked up, also: biotinylated, site not given here, also called aquaporin 4 peptide 6) [AQP4-6 peptide]
binding result (HLA-DRB1*07:01): no binding (tested: 100 µM (general method))

Binder: FFRDHSYQEEA (also: biotinylated, site not given here) [MOG^97-109 peptide]
binding result (HLA-DRB1*04:01 G86L): no binding (tested: 100 uM)

Binder: {Biotin-PEGS}-GQVELGGWSKMDQLA (reading uncertain) [Hybrid Insulin Peptide HIP1-WE14]
binding result (HLA-DRB1*04:01): no binding (tested: 100 uM)
binding result (HLA-DRB1*04:01 G86L): no binding (tested: 100 uM)

Second part, led by results:

binding result (HLA-DRB1*04:01): binds
binding result [1]: no binding
binding result [2]: binds
binding result [3]: binds
binding result [4]: binds
Binder: HLVEELYLVAGEEG (also: biotinylated, site not given here) [Insulin Mimotope peptide]

binding result (HLA-DRB1*15:01): binds
binding result (HLA-DRB1*04:01): binds
Binder: LVRYWISAFP (also: biotinylated, site not given here, also called RASDRP2) [RASGRP2 78-87 peptide]

binding result (HLA-DRB1*15:01): binds
binding result (HLA-DRB1*04:01 G86L): binds
Binder: ENPVVHFFKNIVTPRTPPP (also: biotinylated, site not given here) [MBP^83-101 peptide]

binding result (HLA-DRB1*04:01): no binding (tested: 100 uM)
binding result (HLA-DRB1*04:01 G86L): no binding (tested: 100 uM)
Binder: {Biotin-PEGS}-GQVELGGGNAVEVLK (reading uncertain) [Hybrid Insulin Peptide HIP6-IAPP2]

binding result (HLA-DRB1*04:01): no binding (tested: 100 uM)
binding result (HLA-DRB1*04:01 G86L): no binding (tested: 100 uM)
binding result [2]: no binding
binding result [3]: binds
binding result [4]: binds
Binder: {Biotin-PEGS}-SLQPLALEAEDLQV (reading uncertain) [Hybrid Insulin Peptide HIP11-C peptide]

binding result (HLA-DRB1*04:01): no binding (tested: 100 uM)
binding result (HLA-DRB1*04:01 G86L): no binding (tested: 100 uM)
binding result [1]: no binding
binding result [3]: binds
binding result [4]: binds
Binder: {Biotin-PEGS}-GQVELGGGSSPETLI (reading uncertain, also called HIP9; HIP9-NPY) [Hybrid Insulin Peptide HIP8-NPY]

binding result (HLA-DRB1*04:01 G86L): binds
binding result (HLA-DRB1*15:01 F47Y): binds
binding result (HLA-DRB1*15:01 A71R): binds
binding result (HLA-DRB1*15:01 V86G): binds
Binder: AQGTLSKIFKLGGRDSRSGSPMARR (also: biotinylated, site not given here) [MBP^146-170 peptide]
binding result (HLA-DRB1*15:01): no binding (tested: 100 µM (general method))
